The text below walks through data of the DeepSol protein solubility set.

A short description of this data set: soluble on expression in E. coli; label from the status in PepcDB or PDB records.
On to “MAHHHHHHMDQSRHKRTARHQYLGARTKITLKLQLTRIQHRGFHVHVHSRTTPLDRQAHEDALQQRDVECLLWRVKMQQIQQNRSGEGHVDKAQTTHTGIRIVHGADPATVNAAGLRVLRIGERERPKTVRNRSWQTRVTVAASSTHALTAADAARPRSEAHGVHSARATVQHRHGRPNIEVDSVIRHRRAS”, for which the “soluble on expression in E. coli” value is “not soluble”.

For “MSLLDIERVREQQRPLPISKIRAQQSHTSFQGVFEEIAGHKSEKTVYAILETLEKDGERLAKHRTAAELHAFKRSVRQCVSHLLESLKVETASSAASGQVRQYKLVKEIDKGLVELTNAVFDQSKSELDLLNKIGELQGLIIQLYLEGHHHHHH”, the “soluble on expression in E. coli” value is on record as “soluble”.

Consider “MPPVYSQPELSISIAGLRLQRPVGNASGILGWEPREARLVEEGGGGFFVAKSVTYQPRKGYPQPHLYPVAGGIVNAVGLANPGFREASKMLAQTVEEASIPVIASIAGGAPGEWVEMASTLEEAGVSAVELNLSCPHFAGGGLELGQDPAAVASVVSAVASTLRIPVIAKLGYSDRLVDAASKALEAGARGLTLINSMRAMKIDVYAKKPVLGNRVGGLSGKPIHPIAVRAVYEVYGETRADIFAAGGVESWEDAVEFYLAGAKAVQVGAAFITIGPHVLRSIVEGVRRYLWVEGFRSLQDIVGYAHRA”, for which the “soluble on expression in E. coli” value is listed as “soluble”.

Turning to “MSLNDRTTTHGETEPRSEQPGIRAAAGPGRWHDVELMAYKPDDAAPFRSVTRQVLFSDLRLGCEWRYFEVAEGGYSTLERHQHVHATMIHRGRGQCLVGDVISDVAVGDLVFIPPMTWHQFRANAGDVLGFLCLVNADRDRPQLPRPDELAVLRQNKAIASFIGAEAEGHHHHHH”, the “soluble on expression in E. coli” value is “soluble”.

Turning to “MTYEAFVELVERLWEEVPEDFKRGLQGVHVFPEAKPEPGLEGVWRLGEYLDPGPPSAFGGFEDLGRHIALYYGSFLEVAGEGFDWEAEVWETMLHELRHHLESLAGRDDLVQEDLRRLDAFRRGGPSGEG”, the “soluble on expression in E. coli” value is on record as “soluble”.

“HRVGLYEKALPNHLSWEEKLACTKELGFDFLEISVDESDERRSRLDWDDATIYSLHRLCEEYGVPLQSMCLSAHRKFPFGSADPALRDEALKIMQKAITLAYKLGIRTIQLAGYDVYYEPANSATHQRFIEGMQHAARLAERAGVMLAVEIMDTPYLNALSKFEVLNRQIQSPFFTAYPDVGNISGWNYDLLTELSLSKPHITQIHLKDTYKVSEQYAGQFRDLVIGEGDVDFDELFCRLKALDCVVPLVIEMWAHDEQWQQHIHTAQRRLNQACDRAELP”: the “soluble on expression in E. coli” value is on record as “not soluble”.

Regarding “MQVFDLSVDGATTIDIGASTGGFTDVMLQNSAKLVFAVDVGTNQLAWKLRQDPRVVSMEQFNFRYAEKTDFEQEPSFASIDVSFISLSLILPALHRVLADQGQVVALVKPQFEAGREQIGKNGIIRDAKVHQNVLESVTAMAVEVGFSVLGLDFSPIQGGHGNIEFLAYLKKEKSASNQILAEIKEAVERAHSQFKNE”, the “soluble on expression in E. coli” value is on record as “not soluble”.

Consider “MISNQILQNTIEGIKSISRVDLHVADTDGKIIASTSQLGDEFGHAIISFVNSPADSQSVQEYQFFKVYDESQLELILIAQGTSDDVFMVGKMAAFQIQNLLVAYKERFDKDNFIKNLLLDNLLLVDIYNRSKKLYIDVDARRCVCIIETKNEKDSVALETVRTLFSGNKKDFITAVDEKSIILVKELEEKQGYEDIEKIARTIVDMLNTEAMVKATVAYGTIVKEIKEVSRSYKEARMALDVGKIFFSTKNVIAYNNLGIGRLIYQLPIPLCKMFISEIFEGKSPDEFDEETLTTINKFFENSLNVSETSRQLYIHRNTLVYRLDKLQKSTGLDLRVFEDAITFKIALMVVKYMKYMENTDF”, for which the “soluble on expression in E. coli” value is given as “not soluble”.

For “MGSDKIHHHHHHVYYAHFGLKEPPFKITPNTDFFFRGGNRGAVLEALRYAILHGEGIVKVVGEVGSGKTMLCRMLQTQLPDHVDSVYLANPSMAPEDVLHAIALELHLDIPDRLSKLEVMQRLQQALLDKHEARRQVVVFVEEAQGMPLATLEEIRLLTNLETRHHKLLQIVLFGQPELDDNLNQRQIRQLKERITHSFYLGPLSRDEIAEYLMFRLRAAGYYGPPLFTKRAVKQLAKMAQGLVRRVNILADKSLLAAFAANADQVTPRHVAAAIRDSEFAGEIQRPVGRWSVLIGGLVLGVAGMALYAWSQGMLPLPVAPAPVTHAETEQRLEEAHSLENESGRGMSGVLPLLMQREEASLVWLDSTPPEYITIALMHDFPETDQEKEQQLLSANLVLDDVYALRTKVGEEDRVIILYGAYENRQQALEEFRSLPKALQMGAYLRTIAGIREELLQHQ”, the “soluble on expression in E. coli” value is recorded as “not soluble”.

As for “AATSRTERIWPGGVIPYVIGGNFTGSQRAMFKQAMRHWEKHTCVTFIERSDEESYIVFTYRPCGCCSYVGRRGNGPQAISIGKNCDKFGIVVHELGHVIGFWHEHTRPDRDNHVTIIRENIQPGQEYNFLKMEPGEVNSLGERYDFDSIMHYARNTFSRGMFLDTILPSRDDNGIRPAIGQRTRLSKGDIAQARKLYRCPA”, the “soluble on expression in E. coli” value was “soluble”.

In the case of “MRKSRLSRYKQNKLIELFVAGVTARTATEPDSIVYTDCYRRYDVLDAGEFSHFRINHSTHFAERQNHINGIGNFWNRAKRHLRKFDGIPKEHFEPYLKECERRFLEHHHHHH”, the “soluble on expression in E. coli” value is given as “soluble”.

As for “MKQLMIEASTPLCQLQDAGRFGVRHLGVTQGGALDWVAMHWANWLLGNPLGAPVVEVALGGFCVVAEQDCVLALAGADLDACVDDQPLAPWRSFALAKGQRLTLKQPKVGVRAYLAAPGGFLGEDVLGSCATVVREALGGIDGQGAALAKHQALAFTGSNAPLREVPQALCPQFAQKPVLDLVMGAQIGEFSGTSLFEAFNREWTLDSRADRMGIRLLGPQLVYQGAPMISEGIPLGAVQVPPDGQPIVLLNDRQTIGGYPRLGALTPLALAQLAQCMPGTVVRFRAVVQDEAWREQQLYLGRWS”, the “soluble on expression in E. coli” value is given as “not soluble”.

Turning to “MSNILIINGAKKFAHSNGQLNDTLTEVADGTLRDLGHDVRIVRADSDYNVKAEVQNFLWADVVIWQMPGWWMGAPWTVKKYIDDVFTEGHGTLYASDGRTRKDPSKKYGSGSLVQDKKYMLSLTWNAPMEAFTEKDQFFHGVGVDGVYLPFHKANQFLGMEPLPTFIANDVIKMPDVPRYTEEYRKHLVEIFG”, the “soluble on expression in E. coli” value is given as “not soluble”.

Take “GSENIYTTLKFESMMQQRVIQIRSIPEEEYHELVSVQFKTDGGKYEKGEKQDLELSEKKTENGKDTESWGWNENQDSDEHDGWDEELDIDVDNVPIQVSVFVQSAAKVFTEFEQGCDTIGRSKVESIYLYKFNLLQTAFFAMVSEKVNDWTQLYKDVRYLYTENPKLLQLMELNSRRLDLNLNLIKKTIYKLVNDQLQELKDNERTPDWDITISSLLPYLKKTALPTLYKLEDNTILVALIRYIVHDLVIDNILHWRVISEKSSENLSEFIMLLLSGLEIPRLNLIETYRHSREKLGILSKILTAHLKDILEMFYEGEFFLFETDEIVQWIILLFADTPTRRDCIDEIRRVREEATD”: the “soluble on expression in E. coli” value was “soluble”.

Take “SLIKNGELKPGDKLDSVQALAESFQVSRSAVREALSALKAMGLVEMKQGEGTYLKEFELNQISQPLSAALLMKKEDVKQLLEVRKLLEIGVASLAAEKRTEADLERIQDALKEMGSIEADGELGEKADFAFHLALADASQNELLKHLMNHVSSLLLETMRETRKIWLFSKKTSVQRLYEEHERIYNAVAAGNGAQAEAAMLAHLTNVEDVLSGYFEENVQ”: the “soluble on expression in E. coli” value was “soluble”.

Turning to “MGHHHHHHSHCDSDCLWVGLAGPQILPPCRSIVRTLHQHKLGRASWPSVQQGLQQSFLHTLDSYRILQKAAPFDRRATSLAWHPTHPSTVAVGSKGGDIMLWNFGIKDKPTFIKGIGAGGSITGLKFNPLNTNQFYASSMEGTTRLQDFKGNILRVFASSDTINIWFCSLDVSASSRMVVTGDNVGNVILLNMDGKELWNLRMHKKKVTHVALNPCCDWFLATASVDQTVKIWDLRQVRGKASFLYSLPHRHPVNAACFSPDGARLLTTDQKSEIRVYSASQWDCPLGLIPHPHRHFQHLTPIKAAWHPRYNLIVVGRYPDPNFKSCTPYELRTIDVFDGNSGKMMCQLYDPESSGISSLNEFNPMGDTLASAMGYHILIWSQEEARTRK”, the “soluble on expression in E. coli” value is “not soluble”.

Take “MSLQLSKAAEMCYEITNSYLHIDQKSQIIASTQEAIRLTRKYLLSEIFVRWSPLNGEISFSYNGGKDCQVLLLLYLSCLWEYFFIKAQNSQFDFEFQSFPMQRLPTVFIDQEETFPTLENFVLETSERYCLSLYESQRQSGASVNMADAFRDFIKIYPETEAIVIGIRHTDPFGEALKPIQRTDSNWPDFMRLQPLLHWDLTNIWSFLLYSNEPICGLYGKGFTSIGGINNSLPNPHLRKDSNNPALHFEWEIIHAFGKDAEGERSSAINTSPISVVDKERFSKYHDNYYPGWYLVDDTLERAGRIKNEGHHHHHH”: the “soluble on expression in E. coli” value is “soluble”.

With “SDRKSDRELLYFRKKLQRKLGPISIATPEALLNAHEMLRDKMHYFIEQTQCSVGIFIHRGFKHAGKVLLLMENEGDEELLAYARSLARNNGSVLDVLPETDGLPPTLSMGENRLKAGLPSTINISSYHFMLVSYRYWLRFAGECPSVIEHLPSTIIIHHRNDRSSTLKAAMI”, the “soluble on expression in E. coli” value is given as “not soluble”.

“MGSDKIHHHHHHMPLYQPLTPRLFMRQWRASDLPCFARMNADRRVMRFFPASLTRRQSDAMAERCSMLIDSQGWGFWAVEERSSGLFAGMVGLHRPSGDLPFAPCVEVGWRLDPDHWGKGYATEAAAAALDIAFNTLGLHEVVAFTAVLNTPSQAVMRRLGMRHAMDFEHPAVPADSPLRAHCLYRTDKEEHQRRHGL”: the “soluble on expression in E. coli” value was “not soluble”.

Turning to “MYSTLEQLTKHPVFYHFAEISKIPRGSGNEKEISDYLVGFAKERNLEVIQDEALNVIIKKEATTGYENVPAIIIQGHMDMVCEKNQATVHDFEKDPIELRIIGDMLYANQTTLGADNGIAVAYALALLDSKEIPHPALEVVITTEEETTMGGAFAIDPNHFEGKIFINIDSEEDHKLLVSSAGGAKAVETIPVIWDETPANMDAYRLYVGGLKGGHSGMEIDKQRGNANKVLGRVLRDLSAHTEFNISEVHGGLKTNAIPRESVATLLIRTEDVGQVEEKLESWTRVLQEEMRAVDPDVHVTLTKLDETVEKVFAQETQKQLISSLFLIPNGIQSMSMDIKGLVESSTNLGVIETLQDEIKLRNEVRSSVSSLKQHVAEEIKYIAELVGATFEIESEYPEWPYNPNSQIRNLFEKVHQEKYNKEIEIFAVHAGIECSAFVQKMPELDAISFGPDIFNVHTPDEHISISSVVNNWGFFIDVMKGTKELAK”, the “soluble on expression in E. coli” value is reported as “not soluble”.

On to “MASGRARCTRKLRNWVVEQVESGQFPGVCWDDTAKTMFRIPWKHAGKQDFREDQDAAFFKAWAIFKGKYKEGDTGGPAVWKTRLRCALNKSSEFKEVPERGRMDVAEPYKVYQLLPPGIVSGQPGTQKVPSKRQHSSVSSERKEEEDAMQNCTLSPSVLQDSLNNEEEGASGGAVHSDIGSSSSSSSPEPQEVTDTTEAPFQGDQRSLEFLLPPEPDYSLLLTFIYNGRVVGEAQVQSLDCRLVAEPSGSESSMEQVLFPKPGPLEPTQRLLSQLERGILVASNPRGLFVQRLCPIPISWNAPQAPPGPGPHLLPSNECVELFRTAYFCRDLVRYFQGLGPPPKFQVTLNFWEESHGSSHTPQNLITVKMEQAFARYLLEQTPEQQAAILSLV”, for which the “soluble on expression in E. coli” value is recorded as “soluble”.

Consider “MARVVVDAQAARAIGKGAMIVFKKGVVRVEGDIKPGDIVEVYTRGGKFLGKGFANPNSNIMVRIVTKDKDVEINKDLFKRRIKKANEYRKKVLKYTNVYRMVYGEADYLPGLIVDRFNDIASLQISSAGMERFKLDVAEAIMEVEPGIETVFEKNTGRSRRREGLPEIERVLLGKEKYRTIIQEGRAKFIVDMRGQKTGFFLDQRENRLALEKWVQPGDRVLDVFTYTGGFAIHAAIAGADEVIGIDKSPRAIETAKENAKLNGVEDRMKFIVGSAFEEMEKLQKKGEKFDIVVLDPPAFVQHEKDLKAGLRAYFNVNFAGLNLVKDGGILVTCSCSQHVDLQMFKDMIIAAGAKAGKFLKMLEPYRTQAPDHPILMASKDTEYLKCLFLYVEDMR”, for which the “soluble on expression in E. coli” value is given as “soluble”.
